This is an account of results in US10689429B2, “Double-acylated GLP-1 compounds” (Novo Nordisk A/S, priority 2014, dated 2020).

Like-named read-outs stand apart in the source and are kept apart here. *1 amine or outer side, *2 acyl side, *3 side chain or, on linkers, in order; H or OH if unused. Where a SMILES comes first, the peptide text is derived from it. Where no end group is shown, it is not given here. Side-chain parts run from the residue outwards. [ ]: non-standard residue; d: D form. The star is where a group is joined. Undecanoyl(11-OPh(4-COOH)) = O=C(O)c1ccc(OCCCCCCCCCCC(=O)*)cc1; Decanoyl(10-O(3-COOH-Ph)) = O=C(O)c1cccc(OCCCCCCCCCC(=O)*)c1; γGlu = O=C(O)[C@H](CCC(=O)[*:2])N[*:1]; C14 diacid = O=C(O)CCCCCCCCCCCCC(=O)*; AEEA = NCCOCCOCC(=O)O; Aib = CC(C)(N)C(=O)O

Data set [1] has as its target T1, human GLP-1 receptor (Homo sapiens, UniProt P43220).
T1 construct: expressed in transfected cells; host or cells: membranes from BHK cells, parent line BHKTS13, clone FCW467-12A
Nature of the data set: In vitro potency, CRE luciferase reporter gene assay in BHK cells expressing the human GLP-1 receptor.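 Note: firefly luciferase luminescence read after 3 h incubation at 37 °C, compounds tested in an eight-point series from 0.01 pM to 100 nM.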 It counts as cell-based. Particulars: average of duplicates. Background: A reporter such as luciferase makes a cellular process visible.
Target sequence in this assay (P43220 24-463): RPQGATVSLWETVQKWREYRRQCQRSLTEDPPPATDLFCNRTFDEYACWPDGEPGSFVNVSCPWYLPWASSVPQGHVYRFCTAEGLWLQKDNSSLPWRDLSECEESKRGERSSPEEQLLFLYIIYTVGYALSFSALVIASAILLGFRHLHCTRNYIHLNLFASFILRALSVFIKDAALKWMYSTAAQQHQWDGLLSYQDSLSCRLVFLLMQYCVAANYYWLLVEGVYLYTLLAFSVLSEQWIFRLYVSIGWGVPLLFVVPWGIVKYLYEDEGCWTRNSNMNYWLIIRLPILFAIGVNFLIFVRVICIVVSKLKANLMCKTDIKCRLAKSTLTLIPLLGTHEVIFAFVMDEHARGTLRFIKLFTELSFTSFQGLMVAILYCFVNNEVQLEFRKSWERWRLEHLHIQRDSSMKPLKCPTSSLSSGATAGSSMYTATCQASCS
Description: The in vitro potency is the measure of human GLP-1 receptor activation in a whole cell assay.
In vitro potency was determined by measuring the response of the human GLP-1 receptor in a reporter gene assay. The assay was performed in a stably transfected BHK cell line that expresses the human GLP-1 receptor and contains the DNA for the cAMP response element (CRE) coupled to a promoter and the gene for firefly luciferase (CRE luciferase). When the human GLP-1 receptor is activated it results in the production of cAMP, which in turn results in the luciferase protein being expressed. When assay incubation is completed the luciferase substrate (luciferin) is added and the enzyme converts luciferin to oxyluciferin to produce bioluminescence. The luminescence is measured as the readout for the assay.
An increase of the in vitro potency, EC50 value, in the presence of serum albumin would indicate an affinity to serum albumin and represents a method to predict a protracted pharmacokinetic profile of the test substance in animal models.
The cells were cultured at 5% CO2 in Cell Culture Medium. They were aliquoted and stored in liquid nitrogen. Before each assay an aliquot is taken up and washed twice in PBS before being suspended at the desired concentration in the assay specific buffer. For 96-well plates the suspension was made to give a final concentration of 5×10^3 cells/well.
Assay Medium consisted of DMEM w/o phenol red, 10 mM Hepes and 1× Glutamax. The 1% Assay Buffer consisted of 2% ovalbumin, 0.2% Pluronic F-68 and 2% HSA in Assay Medium. The 0% Assay Buffer consisted of 2% ovalbumin and 0.2% Pluronic F-68 in Assay Medium.
1) Cell stocks were thawed in a 37° C. water bath.
2) Cells were washed three times in PBS.
3) The cells were counted and adjusted to 5×10^3 cells/50 μl (1×10^5 cells/ml) in Assay Medium. A 50 μl aliquot of cells was transferred to each well in the assay plate.
4) Stocks of the test compounds and reference compounds were diluted to a concentration of 0.2 pM in 0% Assay Buffer for the 0% HSA CRE luciferase assay and 1% Assay Buffer for the 1% HSA CRE luciferase assay. […] Compounds were tested at the following final concentrations: 1×10^−7 M, 1×10^−8 M; 1×10^−9 M, 1×10^−10 M, 1×10^−11 M, 1×10^−12 M, 1×10^−13 M, and 1×10^−14 M. 6) The assay plate was incubated for 3 h in a 5% CO2 incubator at 37° C. […] 8) A 100 μl aliquot of steadylite plus reagent was added to each well of the assay plate (reagent was light sensitive). 9) Each assay plate was covered with aluminum foil to protect it from light and shaken for 30 min at room temperature. 10) Each assay plate was read in a Packard TopCount NXT instrument. Calculations and Results
The data from the TopCount instrument were transferred to GraphPad Prism software. The software performs a non-linear regression (log(agonist) vs response).
A minimum of two replicates was measured for each sample on separate assay plates. The reported values are averages of the duplicates. For some examples more than one assay was run and in this case the data reported are the averages of the averaged duplicates.

Data set [2] concerns the target T1, human GLP-1 receptor. Briefly: GLP-1 receptor binding, competitive 125I-GLP-1 SPA binding assay on isolated membranes. The note with it: low HSA (max. 0.001% final assay concentration).
The nature of data set [3]: Pharmacokinetic study in mini pigs after i.v. administration. Particulars: female, Göttingen, pig, plasma, iv, 2 nmol/kg; read-out: Minipig iv PK, t½ (converted). It counts as in vivo.
Description: The purpose of this study is to determine the protraction in vivo of the GLP-1 derivatives after i.v. administration to mini pigs, i.e. the prolongation of their time in the body and thereby their time of action. This was done in pharmacokinetic (PK) studies, where the terminal half-life of the derivative in question was determined. By terminal half-life is generally meant the period of time it takes to halve a certain plasma concentration, measured after the initial distribution phase.
Female Göttingen mini pigs obtained from Ellegaard Göttingen Minipigs (Dalmose, Denmark) at approximately 5 months of age and weighing approximately 10 kg were used in the studies. The mini pigs were housed in pens with straw as bedding, four to six together in each pen and fed restrictedly once or twice daily with Altromin 9023 mini pig diet (Chr. Petersen A/S, DK-4100 Ringsted). The pigs were used for repeated pharmacokinetic studies with a suitable wash-out period between successive GLP-1 derivative dosings. An acclimatisation period of 1 week was allowed during which time the mini pigs were trained to be fixated on the back for blood sampling and in slings for i.v. dosing. All handling, dosing and blood sampling of the animals was performed by trained and skilled staff.
The GLP-1 derivatives were dissolved in 50 mM sodium phosphate, 70 mM sodium chloride, 0.05% tween 80, pH 7.4 to a concentration of approximately 20 nmol/ml. Intravenous injections (the volume corresponding to usually 2 nmol/kg, for example 0.1 ml/kg) of the compounds were given as intravenous injections via a Venflon inserted in an ear vein, while the animals were placed un-anaesthetised in a sling. The dose volume was 0.1 ml/kg, and blood was sampled at predefined time points for up till 13 days post dosing (samples were taken with a syringe from a jugular vein). Blood samples (for example 0.8 ml) were collected in EDTA buffer (8 mM) and then centrifuged at 4° C. and 2000 G for 10 minutes.
Individual plasma concentration-time profiles were analysed by a non-compartmental model in WinNonlin v. […] 6.2 or 6.3 (Pharsight Inc., Mountain View, Calif., USA), or other relevant software for PK analysis, and the resulting terminal half-lives determined.
For data set [4], the target named is T2, human GLP-1 receptor (human, UniProt P43220).
Target sequence in this assay (P43220 24-463): as above
Data set [5] addresses T2, human GLP-1 receptor. Nature of the data set: displacement of [125I]-GLP-1-(7-36)NH2 from membranes with human GLP-1 receptor, SPA, high HSA (2.0%).
Description: (§1) Each derivative is added in a series of concentrations to isolated membranes containing the human GLP-1 receptor and displacement of the labelled ligand is monitored. The receptor binding is reported as the concentration at which half of the labelled ligand is displaced from the receptor, the $IC50$ value.
(§2) For the receptor binding assay in the presence of low HSA (0.001%) 50 μl of the assay buffer was added to each well of an assay plate. […] For the receptor binding assay in the presence of high HSA (2.0%) 50 μl of the 8% albumin stock was added to each well of an assay plate. […] Cell membrane aliquots were thawed and diluted to their working concentration. Fifty μl were added to each well in the assay plate. […] WGA SPA beads were suspended in assay buffer at 20 mg/ml. The suspension was diluted to 10 mg/ml in assay buffer just prior to addition to the assay plate. Fifty μl were added to each well in the assay plate. […] A 25 μl aliquot was reserved for measuring total counts/well. […] The assay plate was incubated for 2 h at 30° C. […] The assay plate was centrifuged for 10 min. […] The assay plate was read in a Packard TopCount NXT instrument.
The target of data set [6] is T2, human GLP-1 receptor. Briefly: displacement of [125I]-GLP-1-(7-36)NH2 from membranes with human GLP-1 receptor, SPA, low HSA (0.001%).
Description: as §1, §2
Where [7] appears, read: 0% HSA, read-out: EC50/pM (0% HSA).
[8] abbreviates: EC50/pM (1% HSA), 1% HSA final assay concentration.

As for `CC[C@H](C)[C@H](NC(=O)[C@H](Cc1ccccc1)NC(=O)[C@H](CCC(=O)O)NC(=O)[C@H](CCCNC(=N)N)NC(=O)[C@H](C)NC(=O)[C@H](C)NC(=O)[C@H](CCC(N)=O)NC(=O)[C@H](CCC(=O)O)NC(=O)[C@H](CCC(=O)O)NC(=O)[C@H](CC(C)C)NC(=O)[C@H](Cc1ccc(O)cc1)NC(=O)[C@H](CO)NC(=O)[C@H](CO)NC(=O)[C@@H](NC(=O)[C@H](CC(=O)O)NC(=O)[C@H](CO)NC(=O)[C@@H](NC(=O)[C@H](Cc1ccccc1)NC(=O)[C@@H](NC(=O)CNC(=O)[C@H](CCC(=O)O)NC(=O)C(C)(C)NC(=O)[C@@H](N)Cc1c[nH]cn1)[C@@H](C)O)[C@@H](C)O)C(C)C)C(=O)N[C@@H](C)C(=O)N[C@@H](Cc1c[nH]c2ccccc12)C(=O)N[C@@H](CC(C)C)C(=O)N[C@H](C(=O)N[C@@H](CCCNC(=N)N)C(=O)NCC(=O)N[C@@H](CCCCNC(=O)COCCOCCNC(=O)COCCOCCNC(=O)CC[C@H](NC(=O)CCCCCCCCCCCCC(=O)O)C(=O)O)C(=O)N[C@@H](CCCCNC(=O)COCCOCCNC(=O)COCCOCCNC(=O)CC[C@H](NC(=O)CCCCCCCCCCCCC(=O)O)C(=O)O)C(=O)O)C(C)C` [Example 5, N{Epsilon-36}-[2-[2-[2-[[2-[2-[2-[[(4S)-4-carboxy-4-(13-carboxytridecanoylamino)butanoyl]amino]ethoxy]ethoxy]acetyl]amino]ethoxy]ethoxy]acetyl], N{Epsilon-37}-[2-[2-[2-[[2-[2-[2-[[(4S)-4-carboxy-4-(13-carboxytridecanoylamino)butanoyl]amino]ethoxy]ethoxy]acetyl]amino]ethoxy]ethoxy]acetyl]-[Aib8,Glu22,Arg26,Arg34,Lys36,Lys37]-GLP-1-(7-37)-peptide], the EC50 in data set [1] (setting [7]) turned out to be 1.1 pM; in data set [1] (setting [8]) it was 22 pM. In addition, in data set [2] (read-out: IC50/nM (low HSA)), the IC50 came to 0.2 nM. The half-life in data set [3] is 4.12 days.
On to `CC[C@H](C)[C@H](NC(=O)[C@H](Cc1ccccc1)NC(=O)[C@H](CCC(=O)O)NC(=O)[C@H](CCCNC(=N)N)NC(=O)[C@H](C)NC(=O)[C@H](C)NC(=O)[C@H](CCC(N)=O)NC(=O)[C@H](CCC(=O)O)NC(=O)[C@H](CCC(=O)O)NC(=O)[C@H](CC(C)C)NC(=O)[C@H](Cc1ccc(O)cc1)NC(=O)[C@H](CO)NC(=O)[C@H](CO)NC(=O)[C@@H](NC(=O)[C@H](CC(=O)O)NC(=O)[C@H](CO)NC(=O)[C@@H](NC(=O)[C@H](Cc1ccccc1)NC(=O)[C@@H](NC(=O)CNC(=O)[C@H](CCC(=O)O)NC(=O)C(C)(C)NC(=O)[C@@H](N)Cc1c[nH]cn1)[C@@H](C)O)[C@@H](C)O)C(C)C)C(=O)N[C@@H](C)C(=O)N[C@@H](Cc1c[nH]c2ccccc12)C(=O)N[C@@H](CC(C)C)C(=O)N[C@H](C(=O)N[C@@H](CCC(N)=O)C(=O)NCC(=O)N[C@@H](CCCCNC(=O)COCCOCCNC(=O)COCCOCCNC(=O)CC[C@H](NC(=O)CCCCCCCCCCOc1ccc(C(=O)O)cc1)C(=O)O)C(=O)N[C@@H](CCCCNC(=O)COCCOCCNC(=O)COCCOCCNC(=O)CC[C@H](NC(=O)CCCCCCCCCCOc1ccc(C(=O)O)cc1)C(=O)O)C(=O)O)C(C)C` [Example 7] (H-H[Aib]EGTFTSDVSSYLEEQAAREFIAWLVQGK([AEEA-AEEA-γGlu-Undecanoyl(11-OPh(4-COOH))])K([AEEA-AEEA-γGlu-Undecanoyl(11-OPh(4-COOH))])-OH; N-terminus and C-terminus assumed), for which the EC50 in data set [1] (EC50/pM (0% HSA), 0% HSA) was 1.5 pM; in data set [1] (setting [8]) it was 143 pM. The same molecule yielded an IC50 in data set [2] (IC50/nM (low HSA)) of 0.47 nM. Further, in data set [3], the half-life was 4.46 days.
With `CC[C@H](C)[C@H](NC(=O)[C@H](Cc1ccccc1)NC(=O)[C@H](CCC(=O)O)NC(=O)[C@H](CCCNC(=N)N)NC(=O)[C@H](C)NC(=O)[C@H](C)NC(=O)[C@H](CCC(N)=O)NC(=O)[C@H](CCC(=O)O)NC(=O)[C@H](CCC(=O)O)NC(=O)[C@H](CC(C)C)NC(=O)[C@H](Cc1ccc(O)cc1)NC(=O)[C@H](CO)NC(=O)[C@H](CO)NC(=O)[C@@H](NC(=O)[C@H](CC(=O)O)NC(=O)[C@H](CO)NC(=O)[C@@H](NC(=O)[C@H](Cc1ccccc1)NC(=O)[C@@H](NC(=O)CNC(=O)[C@H](CCC(=O)O)NC(=O)C(C)(C)NC(=O)[C@@H](N)Cc1c[nH]cn1)[C@@H](C)O)[C@@H](C)O)C(C)C)C(=O)N[C@@H](C)C(=O)N[C@@H](Cc1c[nH]c2ccccc12)C(=O)N[C@@H](CC(C)C)C(=O)N[C@H](C(=O)N[C@@H](CCCNC(=N)N)C(=O)NCC(=O)N[C@@H](CCCCNC(=O)COCCOCCNC(=O)COCCOCCNC(=O)COCCOCCNC(=O)CC[C@H](NC(=O)CCCCCCCCCCCCC(=O)O)C(=O)O)C(=O)N[C@@H](CCCCNC(=O)COCCOCCNC(=O)COCCOCCNC(=O)COCCOCCNC(=O)CC[C@H](NC(=O)CCCCCCCCCCCCC(=O)O)C(=O)O)C(=O)O)C(C)C` [Example 12], the figures for the EC50 in data set [1] (setting [7]) and in data set [1] (setting [8]) were 1.2 pM and 10 pM, respectively. For the same molecule, the IC50 in data set [2] (read-out: IC50/nM (low HSA)) is 0.2 nM. The half-life in data set [3] was 3.33 days.
For `CC[C@H](C)[C@H](NC(=O)[C@H](Cc1ccccc1)NC(=O)[C@H](CCC(=O)O)NC(=O)[C@H](CCCNC(=N)N)NC(=O)[C@H](C)NC(=O)[C@H](C)NC(=O)[C@H](CCC(N)=O)NC(=O)[C@H](CCC(=O)O)NC(=O)[C@H](CCC(=O)O)NC(=O)[C@H](CC(C)C)NC(=O)[C@H](Cc1ccc(O)cc1)NC(=O)[C@H](CO)NC(=O)[C@H](CO)NC(=O)[C@@H](NC(=O)[C@H](CC(=O)O)NC(=O)[C@H](CO)NC(=O)[C@@H](NC(=O)[C@H](Cc1ccccc1)NC(=O)[C@@H](NC(=O)CNC(=O)[C@H](CCC(=O)O)NC(=O)C(C)(C)NC(=O)[C@@H](N)Cc1c[nH]cn1)[C@@H](C)O)[C@@H](C)O)C(C)C)C(=O)N[C@@H](C)C(=O)N[C@@H](Cc1c[nH]c2ccccc12)C(=O)N[C@@H](CC(C)C)C(=O)N[C@H](C(=O)N[C@@H](CCCNC(=N)N)C(=O)NCC(=O)N[C@@H](CCCCNC(=O)COCCOCCNC(=O)CC[C@H](NC(=O)CC[C@H](NC(=O)CCCCCCCCCCCCC(=O)O)C(=O)O)C(=O)O)C(=O)N[C@@H](CCCCNC(=O)COCCOCCNC(=O)CC[C@H](NC(=O)CC[C@H](NC(=O)CCCCCCCCCCCCC(=O)O)C(=O)O)C(=O)O)C(=O)O)C(C)C` [Example 13, N{Epsilon-36}-[2-[2-[2-[[(4S)-4-carboxy-4-[[(4S)-4-carboxy-4-(13-carboxytridecanoylamino)butanoyl]amino]butanoyl]amino]ethoxy]ethoxy]acetyl], N{Epsilon-37}-[2-[2-[2-[[(4S)-4-carboxy-4-[[(4S)-4-carboxy-4-(13-carboxytridecanoylamino)butanoyl]amino]butanoyl]amino]ethoxy]ethoxy]acetyl]-[Aib8,Glu22,Arg26,Arg34,Lys36,Lys37]-GLP-1-(7-37)-peptide] the same measures were 1.3 pM, 18 pM, 0.47 nM and 4.08 days.
As for H[Aib]EGTFTSDVSSYLEEQAAREFIAWLVRGK([AEEA-AEEA-γGlu-γGlu-C14 diacid])K([AEEA-AEEA-γGlu-γGlu-C14 diacid]) [GLP-1 derivative of Example 21], the EC50/pM (0% HSA) in data set [4] came out at 5.6 pM. In data set [4], this molecule showed an EC50/pM (1% HSA) of 13 pM. The IC50 in data set [5] turned out to be 89 nM; in data set [6], 0.42 nM.
The matching figures for H[Aib]EGTFTSDVSSYLEEQAAREFIAWLVRGK([AEEA-AEEA-γGlu-Decanoyl(10-O(3-COOH-Ph))])K([AEEA-AEEA-γGlu-Decanoyl(10-O(3-COOH-Ph))]) [GLP-1 derivative of Example 15]: 6.1 pM, 44 pM, 126 nM and 0.38 nM.
For HGEGTFTSDVSSYLEEQAAREFIAWLVRGK([AEEA-AEEA-γGlu-Undecanoyl(11-OPh(4-COOH))])K([AEEA-AEEA-γGlu-Undecanoyl(11-OPh(4-COOH))]) [GLP-1 derivative of Example 17] the same measures were 14 pM, 199 pM, 536 nM and 0.9 nM.
The matching figures for H[Aib]EGTFTSDVSSYLEEQAAREFIAWLVRGKK (not fully specified (residues 30, 31)) [GLP-1 derivative of Example 1]: 1.2 pM, 136 pM, 135 nM and 0.21 nM.
As for H[Aib]EGTFTSDVSSYLEEQAAREFIEWLVRGK([AEEA-AEEA-γGlu-Decanoyl(10-O(3-COOH-Ph))])K([AEEA-AEEA-γGlu-Decanoyl(10-O(3-COOH-Ph))]) [GLP-1 derivative of Example 27], in data set [4], the EC50/pM (0% HSA) is 13 pM and the EC50/pM (1% HSA) is 105 pM. Further, the IC50 in data set [5] turned out to be 478 nM. This molecule returned an IC50 in data set [6] of 0.66 nM.
In data set [4], H[Aib]EGTFTSDVSSYLEEQAAREFIAWLVRGK([AEEA-AEEA-AEEA-AEEA-γGlu-C14 diacid])K([AEEA-AEEA-AEEA-AEEA-γGlu-C14 diacid]) [GLP-1 derivative of Example 20] registered an EC50/pM (0% HSA) of 2.7 pM and an EC50/pM (1% HSA) of 5.8 pM. The same molecule yielded an IC50 in data set [6] of 0.81 nM.
